Measurements published in article PMC10618255, “Cryo-EM structure of human O-GlcNAcylation enzyme pair OGT-OGA complex” (Nature Communications, 2023).

B1: GST-OGA (residues 371-440) (domain or fragment, human, UniProt O60502 371-440, looked up)
chain: DVLYSPQMALKLALTEWLQEFGVPHQYSSRQVAHSGAKASVVDGTPLVAAPSLNATTVVTTVYQEPIMSQ
notes: human OGA, residues 371-440, UniProt O60502, cloned into pGEX-6P-1; also called GST-OGA fragment; source: E. coli BL21 (DE3), purified (Glutathione Sepharose 4B, Resource Q, Superose 6)
B2: full-length human OGT (O-GlcNAc transferase), C-terminal His6 (enzyme, UniProt O15294 1-1046, looked up)
chain: MASSVGNVADSTEPTKRMLSFQGLAELAHREYQAGDFEAAERHCMQLWRQEPDNTGVLLLLSSIHFQCRRLDRSAHFSTLAIKQNPLLAEAYSNLGNVYKERGQLQEAIEHYRHALRLKPDFIDGYINLAAALVAAGDMEGAVQAYVSALQYNPDLYCVRSDLGNLLKALGRLEEAKACYLKAIETQPNFAVAWSNLGCVFNAQGEIWLAIHHFEKAVTLDPNFLDAYINLGNVLKEARIFDRAVAAYLRALSLSPNHAVVHGNLACVYYEQGLIDLAIDTYRRAIELQPHFPDAYCNLANALKEKGSVAEAEDCYNTALRLCPTHADSLNNLANIKREQGNIEEAVRLYRKALEVFPEFAAAHSNLASVLQQQGKLQEALMHYKEAIRISPTFADAYSNMGNTLKEMQDVQGALQCYTRAIQINPAFADAHSNLASIHKDSGNIPEAIASYRTALKLKPDFPDAYCNLAHCLQIVCDWTDYDERMKKLVSIVADQLEKNRLPSVHPHHSMLYPLSHGFRKAIAERHGNLCLDKINVLHKPPYEHPKDLKLSDGRLRVGYVSSDFGNHPTSHLMQSIPGMHNPDKFEVFCYALSPDDGTNFRVKVMAEANHFIDLSQIPCNGKAADRIHQDGIHILVNMNGYTKGARNELFALRPAPIQAMWLGYPGTSGALFMDYIITDQETSPAEVAEQYSEKLAYMPHTFFIGDHANMFPHLKKKAVIDFKSNGHIYDNRIVLNGIDLKAFLDSLPDVKIVKMKCPDGGDNADSSNTALNMPVIPMNTIAEAVIEMINRGQIQITINGFSISNGLATTQINNKAATGEEVPRTIIVTTRSQYGLPEDAIVYCNFNQLYKIDPSTLQMWANILKRVPNSVLWLLRFPAVGEPNIQQYAQNMGLPQNRIIFSPVAPKEEHVRRGQLADVCLDTPLCNGHTTGMDVLWAGTPMVTMPGETLASRVAASQLTCLGCLELIAKNRQEYEDIAVKLGTDLEYLKKVRGKVWKQRISSPLFNTKQYTMELERLYLQMWEHYAAGNKPDHMIKPVEVTESA
notes: human O-GlcNAc transferase (OGT), full length, UniProt O15294; Scissor-shaped homodimer by cryo-EM; also called OGT WT; His6-tagged OGT; source: E. coli BL21 (DE3), purified (Ni-NTA, Resource Q, Superose 6); for the OGT-OGA complex co-expressed with OGA in BL21 (DE3); not shown: His6, C-terminal, kept

Legend:
[1] = O-GlcNAc at S405
[2] = biological target: B2; assay: pull-down; GST pull-down: GST-OGA bait on Glutathione Sepharose 4B, His6-tagged OGT or mutants as prey; all proteins 1 mg/ml; 25 mM Tris pH 8.0, 150 mM NaCl, 2 mM DTT, 0.05% NP40; 2 h at 4 °C; SDS-PAGE with Coomassie staining; conditions: both partners purified
[3] = biological target: the molecule itself; assay: cryo-EM structure; single-particle cryo-EM of full-length human OGT alone, incubated with 1 mg/ml UDP-GlcNAc on ice; overall resolution 3.69 Å

Molecule: OGA (O-GlcNAcase): OGT H508A mutant bound to OGA
- enzymatic_activity [1]: no change

Molecule: B1
- binding result [2]: binds

Molecule: B2
- stoichiometry N [3]: 2
